# Experimental data published in patent US20260167699A1 (Chugai, published 2026).
# T1: FcγRIIa(R) extracellular domain, C-terminal His tag (human, UniProt P12318 34-217)
# T1 construct: extracellular domain; Allotype R131; also called 2aR
# T1 sequence: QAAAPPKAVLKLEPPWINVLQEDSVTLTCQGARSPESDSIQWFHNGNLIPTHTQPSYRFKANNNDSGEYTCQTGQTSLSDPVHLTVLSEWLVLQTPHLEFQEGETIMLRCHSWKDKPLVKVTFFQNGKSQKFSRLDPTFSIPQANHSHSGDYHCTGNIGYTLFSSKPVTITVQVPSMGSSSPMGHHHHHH
# T2: FcγRIIb extracellular domain, C-terminal His tag (human, UniProt P31994 43-217)
# T2 construct: extracellular domain; also called 2b
# T2 sequence: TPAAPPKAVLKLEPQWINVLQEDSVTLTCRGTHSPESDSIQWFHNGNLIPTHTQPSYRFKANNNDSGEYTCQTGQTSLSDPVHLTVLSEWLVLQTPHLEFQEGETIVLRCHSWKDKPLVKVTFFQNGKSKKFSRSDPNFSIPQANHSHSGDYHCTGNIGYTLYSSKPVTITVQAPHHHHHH
# T3: FcγRIIa(H) extracellular domain, C-terminal His tag (human, UniProt P12318 34-217)
# T3 construct: extracellular domain; Allotype H131; also called 2aH
# T3 sequence: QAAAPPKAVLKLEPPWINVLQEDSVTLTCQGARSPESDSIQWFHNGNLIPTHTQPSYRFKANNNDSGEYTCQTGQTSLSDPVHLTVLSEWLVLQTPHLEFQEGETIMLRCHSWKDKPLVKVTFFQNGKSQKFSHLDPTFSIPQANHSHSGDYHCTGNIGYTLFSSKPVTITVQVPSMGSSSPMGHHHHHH
# What was measured:
# Experiment in all cases: SPR (Biacore); binding relative to GpH7-A5/GpH7-B3/GpL16-k0 x100;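 note: antibodies captured on a chip surface, soluble FcγR flowed over in HBS-EP+ running buffer at 25 °C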
# [1] = target: T1, FcγRIIa(R) extracellular domain, …
# Procedure: (§1) The antibody of interest was analyzed for its interaction with FcγR using a BiaCore™ T100, BiaCore™ A100, or BiaCore™ 4000 surface plasmon resonance system (GE Healthcare Japan Corp.). The running buffer used was HBS-EP+ (GE Healthcare Japan Corp.). The assay temperature was set to 25° C. The sensor chips used were: a chip prepared by immobilizing antigenic peptides onto Series S Sensor Chip CM5 (GE Healthcare Japan Corp.) by the amine coupling method; a chip prepared by immobilizing antigenic peptides biotinylated in advance onto Series S Sensor Chip SA (certified) (GE Healthcare Japan Corp.) through their interaction; a chip prepared by immobilizing protein L (ACTIGEN, BioVision, Inc.) onto Series S Sensor Chip CM5 (GE Healthcare Japan Corp.); and a chip prepared by immobilizing protein A/G (Thermo Fisher Scientific K.K.) onto Series S Sensor Chip CM5 (GE Healthcare Japan Corp.). The antibody of interest was captured onto any of these chips and allowed to interact with FcγR diluted with a running buffer. The antibody captured on the chip was washed off through the reaction of 10 mM glycine-HCl (pH 1.5) to regenerate the chip, which was repetitively used.
# [2] = target: T4, FcγRIIIa extracellular domain, C-terminal His tag (human, UniProt P08637 17-208)
# T4 construct: extracellular domain; also called 3a
# Procedure: as §1
# [3] = target: T2, FcγRIIb extracellular domain, …
# Procedure: as §1
# [4] = target: T5, FcγRIa extracellular domain, C-terminal His tag (human, UniProt P12314 16-292)
# T5 construct: extracellular domain; also called 1a
# Procedure: as §1
# [5] = target: T3, FcγRIIa(H) extracellular domain, …
# Procedure: as §1
# T5 sequence (P12314 other isoform, or with tags, fused parts or gaps): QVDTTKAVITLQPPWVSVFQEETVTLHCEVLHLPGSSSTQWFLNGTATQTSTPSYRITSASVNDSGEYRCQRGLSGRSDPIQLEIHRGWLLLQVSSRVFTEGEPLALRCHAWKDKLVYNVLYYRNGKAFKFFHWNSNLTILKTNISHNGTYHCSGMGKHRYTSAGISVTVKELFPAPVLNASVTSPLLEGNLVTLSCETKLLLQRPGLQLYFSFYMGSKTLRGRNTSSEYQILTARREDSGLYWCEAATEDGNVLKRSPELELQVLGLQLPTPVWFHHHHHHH
# T4 sequence (P08637 other isoform, or with tags, fused parts or gaps): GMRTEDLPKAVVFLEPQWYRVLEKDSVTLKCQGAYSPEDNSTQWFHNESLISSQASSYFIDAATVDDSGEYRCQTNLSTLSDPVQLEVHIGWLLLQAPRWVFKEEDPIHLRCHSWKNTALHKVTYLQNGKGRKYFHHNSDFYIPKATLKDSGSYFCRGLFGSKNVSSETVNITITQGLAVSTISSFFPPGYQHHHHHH
Binder,He/Con 2aR [1] [%],He/Con 3a [2] [%],He/Con 2b [3] [%],He/Con 1a [4] [%],He/Con 2aH [5] [%]
"GpH7-A5/GpH7-B3 variant A330_18N/GpL16-k0 (antibody, human IgG1, kappa, He Ab: anti-glypican 3 IgG1 heterodimer, only the GpH7-B3 chain mutated; position in EU numbering; also called He Ab) heavy 1: not shown heavy 2: not shown light: DIVMTQSPLSLPVTPGEPASISCQASESLVHSNRNTYLHWYLQKPGQSPQLLIYKVSNRFSGVPDRFSGSGSGTDFTLKISRVEAEDVGVYYCSQNTHVPPTFGQGTKVEIERTVAAPSVFIFPPSDEQLKSGTASVVCLLNNFYPREAKVQWKVDNALQSGNSQESVTEQDSKDSTYSLSSTLTLSKADYEKHKVYACEVTHQGLSSPVTKSFNRGEC",91,67.3,71.9,110,88.3
"GpH7-A5/GpH7-B3 variant E333_12R/GpL16-k0 (antibody, human IgG1, kappa, He Ab: anti-glypican 3 IgG1 heterodimer, only the GpH7-B3 chain mutated; position in EU numbering; also called He Ab) heavy 1: not shown heavy 2: not shown light: DIVMTQSPLSLPVTPGEPASISCQASESLVHSNRNTYLHWYLQKPGQSPQLLIYKVSNRFSGVPDRFSGSGSGTDFTLKISRVEAEDVGVYYCSQNTHVPPTFGQGTKVEIERTVAAPSVFIFPPSDEQLKSGTASVVCLLNNFYPREAKVQWKVDNALQSGNSQESVTEQDSKDSTYSLSSTLTLSKADYEKHKVYACEVTHQGLSSPVTKSFNRGEC",127,92.2,104,96.7,110
"GpH7-A5/GpH7-B3 variant A330_19Q/GpL16-k0 (antibody, human IgG1, kappa, He Ab: anti-glypican 3 IgG1 heterodimer, only the GpH7-B3 chain mutated; position in EU numbering; also called He Ab) heavy 1: not shown heavy 2: not shown light: DIVMTQSPLSLPVTPGEPASISCQASESLVHSNRNTYLHWYLQKPGQSPQLLIYKVSNRFSGVPDRFSGSGSGTDFTLKISRVEAEDVGVYYCSQNTHVPPTFGQGTKVEIERTVAAPSVFIFPPSDEQLKSGTASVVCLLNNFYPREAKVQWKVDNALQSGNSQESVTEQDSKDSTYSLSSTLTLSKADYEKHKVYACEVTHQGLSSPVTKSFNRGEC",117,86.3,103,109,110
"GpH7-A5/GpH7-B3 variant A330_20W/GpL16-k0 (antibody, human IgG1, kappa, He Ab: anti-glypican 3 IgG1 heterodimer, only the GpH7-B3 chain mutated; position in EU numbering; also called He Ab) heavy 1: not shown heavy 2: not shown light: DIVMTQSPLSLPVTPGEPASISCQASESLVHSNRNTYLHWYLQKPGQSPQLLIYKVSNRFSGVPDRFSGSGSGTDFTLKISRVEAEDVGVYYCSQNTHVPPTFGQGTKVEIERTVAAPSVFIFPPSDEQLKSGTASVVCLLNNFYPREAKVQWKVDNALQSGNSQESVTEQDSKDSTYSLSSTLTLSKADYEKHKVYACEVTHQGLSSPVTKSFNRGEC",97.6,102,86,111,93.8
"GpH7-A5/GpH7-B3 variant E333_18N/GpL16-k0 (antibody, human IgG1, kappa, He Ab: anti-glypican 3 IgG1 heterodimer, only the GpH7-B3 chain mutated; position in EU numbering; also called He Ab) heavy 1: not shown heavy 2: not shown light: DIVMTQSPLSLPVTPGEPASISCQASESLVHSNRNTYLHWYLQKPGQSPQLLIYKVSNRFSGVPDRFSGSGSGTDFTLKISRVEAEDVGVYYCSQNTHVPPTFGQGTKVEIERTVAAPSVFIFPPSDEQLKSGTASVVCLLNNFYPREAKVQWKVDNALQSGNSQESVTEQDSKDSTYSLSSTLTLSKADYEKHKVYACEVTHQGLSSPVTKSFNRGEC",118,76.2,98.2,91.4,110
"GpH7-A5/GpH7-B3 variant I332_03V/GpL16-k0 (antibody, human IgG1, kappa, He Ab: anti-glypican 3 IgG1 heterodimer, only the GpH7-B3 chain mutated; position in EU numbering; also called He Ab) heavy 1: not shown heavy 2: not shown light: DIVMTQSPLSLPVTPGEPASISCQASESLVHSNRNTYLHWYLQKPGQSPQLLIYKVSNRFSGVPDRFSGSGSGTDFTLKISRVEAEDVGVYYCSQNTHVPPTFGQGTKVEIERTVAAPSVFIFPPSDEQLKSGTASVVCLLNNFYPREAKVQWKVDNALQSGNSQESVTEQDSKDSTYSLSSTLTLSKADYEKHKVYACEVTHQGLSSPVTKSFNRGEC",87,85.2,89.5,100,108
"GpH7-A5/GpH7-B3 variant I332_02A/GpL16-k0 (antibody, human IgG1, kappa, He Ab: anti-glypican 3 IgG1 heterodimer, only the GpH7-B3 chain mutated; position in EU numbering; also called He Ab) heavy 1: not shown heavy 2: not shown light: DIVMTQSPLSLPVTPGEPASISCQASESLVHSNRNTYLHWYLQKPGQSPQLLIYKVSNRFSGVPDRFSGSGSGTDFTLKISRVEAEDVGVYYCSQNTHVPPTFGQGTKVEIERTVAAPSVFIFPPSDEQLKSGTASVVCLLNNFYPREAKVQWKVDNALQSGNSQESVTEQDSKDSTYSLSSTLTLSKADYEKHKVYACEVTHQGLSSPVTKSFNRGEC",96.9,103,114,100,115

# Now from value to binder:
He/Con 2aR [1] [%],He/Con 3a [2] [%],He/Con 2b [3] [%],He/Con 1a [4] [%],He/Con 2aH [5] [%],Binder
95.1,101,104,103,112,"GpH7-A5/GpH7-B3 variant I332_19Q/GpL16-k0 (antibody, human IgG1, kappa, He Ab: anti-glypican 3 IgG1 heterodimer, only the GpH7-B3 chain mutated; position in EU numbering; also called He Ab) heavy 1: not shown heavy 2: not shown light: DIVMTQSPLSLPVTPGEPASISCQASESLVHSNRNTYLHWYLQKPGQSPQLLIYKVSNRFSGVPDRFSGSGSGTDFTLKISRVEAEDVGVYYCSQNTHVPPTFGQGTKVEIERTVAAPSVFIFPPSDEQLKSGTASVVCLLNNFYPREAKVQWKVDNALQSGNSQESVTEQDSKDSTYSLSSTLTLSKADYEKHKVYACEVTHQGLSSPVTKSFNRGEC"
108,92.5,116,105,114,"GpH7-A5/GpH7-B3 variant I332_06M/GpL16-k0 (antibody, human IgG1, kappa, He Ab: anti-glypican 3 IgG1 heterodimer, only the GpH7-B3 chain mutated; position in EU numbering; also called He Ab) heavy 1: not shown heavy 2: not shown light: DIVMTQSPLSLPVTPGEPASISCQASESLVHSNRNTYLHWYLQKPGQSPQLLIYKVSNRFSGVPDRFSGSGSGTDFTLKISRVEAEDVGVYYCSQNTHVPPTFGQGTKVEIERTVAAPSVFIFPPSDEQLKSGTASVVCLLNNFYPREAKVQWKVDNALQSGNSQESVTEQDSKDSTYSLSSTLTLSKADYEKHKVYACEVTHQGLSSPVTKSFNRGEC"
104,110,118,104,119,"GpH7-A5/GpH7-B3 variant I332_14T/GpL16-k0 (antibody, human IgG1, kappa, He Ab: anti-glypican 3 IgG1 heterodimer, only the GpH7-B3 chain mutated; position in EU numbering; also called He Ab) heavy 1: not shown heavy 2: not shown light: DIVMTQSPLSLPVTPGEPASISCQASESLVHSNRNTYLHWYLQKPGQSPQLLIYKVSNRFSGVPDRFSGSGSGTDFTLKISRVEAEDVGVYYCSQNTHVPPTFGQGTKVEIERTVAAPSVFIFPPSDEQLKSGTASVVCLLNNFYPREAKVQWKVDNALQSGNSQESVTEQDSKDSTYSLSSTLTLSKADYEKHKVYACEVTHQGLSSPVTKSFNRGEC"
108,114,119,106,105,"GpH7-A5/GpH7-B3 variant K326_01G/GpL16-k0 (antibody, human IgG1, kappa, He Ab: anti-glypican 3 IgG1 heterodimer, only the GpH7-B3 chain mutated; position in EU numbering; also called He Ab) heavy 1: not shown heavy 2: not shown light: DIVMTQSPLSLPVTPGEPASISCQASESLVHSNRNTYLHWYLQKPGQSPQLLIYKVSNRFSGVPDRFSGSGSGTDFTLKISRVEAEDVGVYYCSQNTHVPPTFGQGTKVEIERTVAAPSVFIFPPSDEQLKSGTASVVCLLNNFYPREAKVQWKVDNALQSGNSQESVTEQDSKDSTYSLSSTLTLSKADYEKHKVYACEVTHQGLSSPVTKSFNRGEC"
113,213,158,109,112,"GpH7-A5/GpH7-B3 variant I332_10E/GpL16-k0 (antibody, human IgG1, kappa, He Ab: anti-glypican 3 IgG1 heterodimer, only the GpH7-B3 chain mutated; position in EU numbering; also called He Ab) heavy 1: not shown heavy 2: not shown light: DIVMTQSPLSLPVTPGEPASISCQASESLVHSNRNTYLHWYLQKPGQSPQLLIYKVSNRFSGVPDRFSGSGSGTDFTLKISRVEAEDVGVYYCSQNTHVPPTFGQGTKVEIERTVAAPSVFIFPPSDEQLKSGTASVVCLLNNFYPREAKVQWKVDNALQSGNSQESVTEQDSKDSTYSLSSTLTLSKADYEKHKVYACEVTHQGLSSPVTKSFNRGEC"
97.6,89,103,100,113,"GpH7-A5/GpH7-B3 variant I332_16H/GpL16-k0 (antibody, human IgG1, kappa, He Ab: anti-glypican 3 IgG1 heterodimer, only the GpH7-B3 chain mutated; position in EU numbering; also called He Ab) heavy 1: not shown heavy 2: not shown light: DIVMTQSPLSLPVTPGEPASISCQASESLVHSNRNTYLHWYLQKPGQSPQLLIYKVSNRFSGVPDRFSGSGSGTDFTLKISRVEAEDVGVYYCSQNTHVPPTFGQGTKVEIERTVAAPSVFIFPPSDEQLKSGTASVVCLLNNFYPREAKVQWKVDNALQSGNSQESVTEQDSKDSTYSLSSTLTLSKADYEKHKVYACEVTHQGLSSPVTKSFNRGEC"
104,89.3,115,106,108,"GpH7-A5/GpH7-B3 variant I332_04F/GpL16-k0 (antibody, human IgG1, kappa, He Ab: anti-glypican 3 IgG1 heterodimer, only the GpH7-B3 chain mutated; position in EU numbering; also called He Ab) heavy 1: not shown heavy 2: not shown light: DIVMTQSPLSLPVTPGEPASISCQASESLVHSNRNTYLHWYLQKPGQSPQLLIYKVSNRFSGVPDRFSGSGSGTDFTLKISRVEAEDVGVYYCSQNTHVPPTFGQGTKVEIERTVAAPSVFIFPPSDEQLKSGTASVVCLLNNFYPREAKVQWKVDNALQSGNSQESVTEQDSKDSTYSLSSTLTLSKADYEKHKVYACEVTHQGLSSPVTKSFNRGEC"
97.9,95.6,109,97.3,113,"GpH7-A5/GpH7-B3 variant I332_13S/GpL16-k0 (antibody, human IgG1, kappa, He Ab: anti-glypican 3 IgG1 heterodimer, only the GpH7-B3 chain mutated; position in EU numbering; also called He Ab) heavy 1: not shown heavy 2: not shown light: DIVMTQSPLSLPVTPGEPASISCQASESLVHSNRNTYLHWYLQKPGQSPQLLIYKVSNRFSGVPDRFSGSGSGTDFTLKISRVEAEDVGVYYCSQNTHVPPTFGQGTKVEIERTVAAPSVFIFPPSDEQLKSGTASVVCLLNNFYPREAKVQWKVDNALQSGNSQESVTEQDSKDSTYSLSSTLTLSKADYEKHKVYACEVTHQGLSSPVTKSFNRGEC"
